{
  "source": "paper PMC5472768",
  "binders": {"B1": {"name": "CLL183 Fab (Fab of the BcR IG of CLL subset no. 4 case CLL183) (Fab, V domains shown)", "VH": "QLQLQQWGAGLLKPSETLSLTCAVYGGSFSGYYWTWIRQSPGKGLEWIGEINHSGSTTYNPSLKSRVTISVDTSKNQFSLKLNSVTAADTAVYYCARGYGDTPTIRRYYYYGMDVWGQGTTVTVSS", "VL": "DVVMTQSPLSLPVTLGQPASISCRSSQSLVHSDGNTYLNWFQQRPGQSPRRLIYKVSDRDSGVPDRFSGSGSGTDFTLKISRVEAEDVGLYYCMQGTHWPPYTFGQGTKVEIK"}, "B2": {"name": "CLL240 Fab (Fab of the BcR IG of CLL subset no. 4 case CLL240) (Fab, V domains shown)", "VH": "QVQLQQWGAGLLKPSETLSLNCAVYGESFSGYYWSWIRQPPGKGLEWIGEINHSGSTNYNPSLKSRVTISVDTSKNQFSLKLSSVTAADAAIYYCARGYADTPVFRRYYYYGMDVWAKGTTVTVSS", "VL": "B1 VL with V2I, L90V"}, "B3": {"name": "P11475 IgM Fab fragment (Fab of the BcR IG of CLL subset no. 2 case P11475) (Fab, V domains shown)", "VH": "EVQLVESGGGLVKPGGSLRLSCAASGFTFRSYSMNWVRQAPGKGLEWVSSIISSSSYIYYADSVKGRFTISRDNAKNSLYLQMNSLRAEDTALYYCARDQNAMDVWGQGTTVTVSS", "VL": "SYELTQPPSVSVAPGKTARITCAGNNIGSKSVHWYQQKPGQAPVLVIYYDSDRPSGIPERFSGSNSGNTATLTISRVEAGDEADYYCQVWDSGSDHPWVFGGGTKLTVL"}},
  "key": {"[1]": {"molecular_target": "CLL183 Fab (Fab of the BcR IG of CLL subset no. 4 case CLL183) (human)", "assay": "AUC; sedimentation equilibrium, 0.1, 0.15 and 0.26 mg ml^-1 in storage buffer, 20 °C, four speeds, global fit with a two-state self-association model; dimer to monomers"}, "[2]": {"molecular_target": "CLL183 Fab (Fab of the BcR IG of CLL subset no. 4 case CLL183) (human)", "assay": "AUC; sedimentation velocity, absorbance detection, 72,756g, 20 °C; CLL240 and wild-type CLL183 at 0.1, 0.2 and 0.4 mg ml^-1, CLL183 mutants and the other Fabs up to 1 mg ml^-1; storage buffer (50 mM Tris pH 7, 100 mM glycine) and PBS; monomer-dimer; koff from simultaneous fit of three …"}, "[3]": {"molecular_target": "CLL240 Fab (Fab of the BcR IG of CLL subset no. 4 case CLL240) (human)", "assay": "AUC; sedimentation equilibrium, 0.1, 0.15 and 0.26 mg ml^-1 in storage buffer, 20 °C, four speeds, global fit with a two-state self-association model; dimer to monomers"}, "[4]": {"molecular_target": "CLL240 Fab (Fab of the BcR IG of CLL subset no. 4 case CLL240) (human)", "assay": "AUC; sedimentation velocity, absorbance detection, 72,756g, 20 °C; CLL240 and wild-type CLL183 at 0.1, 0.2 and 0.4 mg ml^-1, CLL183 mutants and the other Fabs up to 1 mg ml^-1; storage buffer (50 mM Tris pH 7, 100 mM glycine) and PBS; monomer-dimer; koff from simultaneous fit of three …"}, "[5]": {"molecular_target": "P11475 IgM Fab fragment (Fab of the BcR IG of CLL subset no. 2 case P11475) (human)", "assay": "ITC; dilution ITC, VP-ITC, 20 °C; 20 mM Tris pH 7.4, 100 mM glycine, 100 mM NaCl; Fab at the maximum achievable concentration (300-400 μM) injected into buffer; dimer to monomers"}, "[6]": {"molecular_target": "P11475 IgM Fab fragment (Fab of the BcR IG of CLL subset no. 2 case P11475) (human)", "assay": "AUC; sedimentation velocity, absorbance detection, 72,756g, 20 °C; CLL240 and wild-type CLL183 at 0.1, 0.2 and 0.4 mg ml^-1, CLL183 mutants and the other Fabs up to 1 mg ml^-1; storage buffer (50 mM Tris pH 7, 100 mM glycine) and PBS; monomer-dimer; koff from simultaneous fit of three …"}},
  "note": "Where a chain is given by its changes, count along the chain named.",
  "data": [
    {"binder": "B1", "values": [
      {"measurement": "Kd", "setting": "[1]", "value": 15.6, "unit": "µM"},
      {"measurement": "koff", "setting": "[2]", "value": "1.99e-05", "unit": "s⁻¹"},
      {"measurement": "stoichiometry N", "setting": "[2]", "value": 2}
    ]},
    {"binder": "B2", "values": [
      {"measurement": "Kd", "setting": "[3]", "value": 14, "unit": "µM"},
      {"measurement": "koff", "setting": "[4]", "value": 0.000263, "unit": "s⁻¹"},
      {"measurement": "stoichiometry N", "setting": "[4]", "value": 2}
    ]},
    {"binder": "B3", "values": [
      {"measurement": "Kd", "setting": "[5]", "value": 430, "unit": "µM"},
      {"measurement": "dH", "setting": "[5]", "value": -5.4, "unit": "kcal/mol"},
      {"measurement": "koff", "setting": "[6]", "value": "> 0.01", "unit": "s⁻¹"}
    ]}
  ]
}
